The nature of series [1]: differential scanning fluorimetry. The following applies: glycan gained; control: wild-type HER2 ECD alone or human IgG1 Fc alone. On the technique in general: DSF heats the sample and reads unfolding from a dye or from intrinsic fluorescence.
The target of series [2] is T1, human MICA*004 α3 domain with a C-terminal His8 (Homo sapiens, MICA*004, UniProt Q29983). Kind of series: SPR. (In general: Surface plasmon resonance follows binding to a sensor surface in real time, without labels.)
Series [3] concerns the target T2, human MICA*002 α3 domain with a C-terminal His8 (Homo sapiens, MICA*002, UniProt Q29983). Kind of series: SPR.
Series [4] addresses T3, human MICB*005 α3 domain with a C-terminal His8 (Homo sapiens, MICB*005, UniProt Q29980). The experiment in a line: SPR.
Series [5] addresses T3, human MICB*005 α3 domain with a …. The experiment in a line: cell-based or functional assay.
The target of series [6] is T4, human MICA*008 α3 domain with a C-terminal His8 (Homo sapiens, MICA*008).
T4 chain: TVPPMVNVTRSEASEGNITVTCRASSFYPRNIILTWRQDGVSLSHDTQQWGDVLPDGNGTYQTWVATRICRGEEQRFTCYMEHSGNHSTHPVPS
The experiment in a line: SPR.

Series [7] has as its target T1, human MICA*004 α3 domain with a …. The experiment in a line: cell-based or functional assay.
Series [8] deals with T4, human MICA*008 α3 domain with a …. The experiment in a line: cell-based or functional assay.
Series [9] addresses T2, human MICA*002 α3 domain with a …. The experiment in a line: cell-based or functional assay.

For HER2 ECD: S310N, the stability_or_folding result in [1] is recorded as “no change”.

As to HER2 ECD: K333N, the stability_or_folding result in [1] is “no change”.

For the molecule HER2 ECD: V308N, the stability_or_folding entry in series [1] is given as “no change”.

B1: anti-MICA/B antibody 6E1 (hybridoma-derived mouse antibody) (antibody, V domains shown)
VH: QGQMQQSGAELVKPGASVKLSCKTSGFTFSDNYISWLKQKPGQSLEWIAWIYAGTGGSSYNQKFRDKAQLTVDTSSRTAYMQLSSLTTEDSAIYYCARHDYYGTSGAWFAYWGRGTLVTVSA
VL: DVLMTQTPLSLPVSLGDQASISCRSSQHIVHSNENTYLEWYLQKPGQSPKLLIYKVSNRFSGVPDRFSGSGSGTDFTLKISRVEAEDLGVYYCFQGSHVPWTFGGGTKLEIK
Take B1: the dissociation constant Kd (usually a measure of binding affinity in units of concentration) in [2] amounted to 8.42 nM; in series [3], 2.96 nM; in [4], 5.75 nM. The “EC50 of inhibition of MICB*005 shedding from the HCC1534 cell line” value (shortened to “EC50 of inhibition of MICB*005 shedding”) in [5] stood at 0.0724 µg/mL. In series [5], the “Max % inhibition of MICB*005 shedding from the HCC1534 cell line” value (shortened to “Max % inhibition of MICB*005 shedding”) worked out at 58%.

B2: anti-MICA/B antibody 13A9 (hybridoma-derived mouse antibody) (antibody, V domains shown)
VH: QVQLQQSGAELVRPGTSVKVSCKASGYAFTNYLIEWVKQRPGQGLEWIGAINPGSGATNYNEKFKDKARLTADKSSNTAYLQFSSLTSDDSAVYFCARFLGNYFDNWGQGATLTVSS
VL: DIQMTQSPASLSASVGETVTITCRASGNIHSYLAWYQQKQGKSPQLLVYYAETLADGVPSRFSGRGSGTQYSLKINSLQPEDFGSYFCQQFWTTPYTFGGGTKVEIK
Take B2: the Kd in series [2] came out at 1.55 nM; in series [6], 0.94 nM; in [3] it was 0.499 nM; in series [4] it was 0.968 nM. For the same molecule, the “EC50 of inhibition of MICA*004 shedding from the HCC1534 cell line” value in series [7] was 0.599 µg/mL. Moreover, the “Max % inhibition of MICA*004 shedding from the HCC1534 cell line” value in series [7] is 56%. In addition, the “EC50 of inhibition of MICA*008 shedding from the MEL-JUSO cell line” value in [8] amounted to 0.794 µg/mL. In series [9], the “EC50 of inhibition of MICA*002 shedding from the PANC1 cell line” value came to 0.418 µg/mL. In [5], the “EC50 of inhibition of MICB*005 shedding” value was 0.0349 µg/mL. The “Max % inhibition of MICB*005 shedding” value in series [5] worked out at 76%.

B3: anti-MICA/B antibody 1D5 (hybridoma-derived mouse antibody) (antibody, V domains shown)
VH: EIQLQQSGPELVKPGASVKVSCKASGYAFTSQNIYWVKQSHGKSLEWIGYIEPYNVVPMYNPKFKGKATLTVDKSSSSAYIHLNSLTSEDSAIYYCARSGSSNFDYWGQGTTLTVSS
VL: EIILTQSPTTMAASPGEKITITCSASSSISSHYLHWYQQKSGFSPKLLIYRTSNLASGVPARFSGSGSGTSYSLTIGTMEAEDVATYYCQQGSSLPLTFGAGTKLEIK
Turning to B3, the Kd in series [2] was found to be 0.486 nM; in series [6], 0.42 nM; in series [3], 0.675 nM; in [4], 1.09 nM. Moreover, the “EC50 of inhibition of MICA*004 shedding from the HCC1534 cell line” value in series [7] amounted to 0.0136 µg/mL. Also, in series [7], the “Max % inhibition of MICA*004 shedding from the HCC1534 cell line” value is 65%. The “EC50 of inhibition of MICA*008 shedding from the MEL-JUSO cell line” value in [8] was 0.0207 µg/mL. Also, the “EC50 of inhibition of MICA*002 shedding from the PANC1 cell line” value in [9] amounted to 0.0341 µg/mL. In series [5], the “EC50 of inhibition of MICB*005 shedding” value amounted to 0.0386 µg/mL. Also, the “Max % inhibition of MICB*005 shedding” value in [5] is 59%.

For the origin of these results see PMC6343778 (mAbs, 2018).
